Experimental data reported in PMC9482650, “Quantitative fragmentomics allow affinity mapping of interactomes” (Nature Communications, 2022).

T1: RHPN1, Q8TCX5
T1 sequence (Q8TCX5 508-602, limits assumed, looked up): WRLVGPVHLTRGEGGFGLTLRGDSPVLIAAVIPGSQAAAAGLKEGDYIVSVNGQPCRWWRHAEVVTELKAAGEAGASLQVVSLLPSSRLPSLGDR

T2: MPDZ_12, O75970
T2 sequence (O75970 1857-1958, limits assumed, looked up): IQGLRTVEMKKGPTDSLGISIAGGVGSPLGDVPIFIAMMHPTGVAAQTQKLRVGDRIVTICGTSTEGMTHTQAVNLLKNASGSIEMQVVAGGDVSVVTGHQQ

T3: PARD3B_1, Q8TEW8
T3 sequence (Q8TEW8 196-299, limits assumed, looked up): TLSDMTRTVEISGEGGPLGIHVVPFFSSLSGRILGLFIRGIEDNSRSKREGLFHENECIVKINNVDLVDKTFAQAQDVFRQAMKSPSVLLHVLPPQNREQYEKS

T4: GRIP1_4, Q9Y3R0
T4 sequence (Q9Y3R0 467-571, limits assumed, looked up): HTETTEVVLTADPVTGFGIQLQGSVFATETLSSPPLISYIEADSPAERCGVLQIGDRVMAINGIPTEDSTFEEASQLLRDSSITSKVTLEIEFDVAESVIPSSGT

T5: LIN7C, Q9NUP9
T5 sequence (Q9NUP9 88-185, limits assumed, looked up): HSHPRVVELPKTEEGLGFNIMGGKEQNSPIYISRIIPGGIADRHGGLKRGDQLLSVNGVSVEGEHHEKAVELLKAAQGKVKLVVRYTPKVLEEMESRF

T6: SHANK1, Q9Y566
T6 sequence (Q9Y566 658-767, limits assumed, looked up): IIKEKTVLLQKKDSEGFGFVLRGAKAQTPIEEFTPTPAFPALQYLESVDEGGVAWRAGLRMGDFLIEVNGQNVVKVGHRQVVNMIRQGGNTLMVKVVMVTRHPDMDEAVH

T7: SIPA1L2, Q9P2F8
T7 sequence (Q9P2F8 945-1036, limits assumed, looked up): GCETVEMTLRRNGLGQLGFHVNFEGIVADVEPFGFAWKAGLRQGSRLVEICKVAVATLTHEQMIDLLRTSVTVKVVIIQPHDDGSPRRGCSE

T8: CARD11, Q9BXL7
T8 sequence (Q9BXL7 662-765, limits assumed, looked up): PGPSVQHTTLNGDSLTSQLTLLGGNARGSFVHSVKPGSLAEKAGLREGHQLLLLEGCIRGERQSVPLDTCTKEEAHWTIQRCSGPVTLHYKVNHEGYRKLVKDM


Columns and labels:
Assay in all cases: holdup assay
Set-up in all cases: key: below the threshold = too weak to quantify, mostly under pKd 3.1 to 4
Conditions in all cases: plain residues with an end cap or a label only (N-terminal biotin on a linker: ado-ado)
FRMPD4, Q14CM0 = molecular target: FRMPD4, Q14CM0
SCRIB_3, Q14160 = molecular target: SCRIB_3, Q14160
RHPN1, Q8TCX5 = molecular target: T1, RHPN1, Q8TCX5
MAGI2_6, Q86UL8 = molecular target: MAGI2_6, Q86UL8
DLG1_3, Q12959 = molecular target: DLG1_3, Q12959
MAGI2_2, Q86UL8 = molecular target: MAGI2_2, Q86UL8
GRIP2_4, Q9C0E4 = molecular target: GRIP2_4, Q9C0E4
MPDZ_12, O75970 = molecular target: T2, MPDZ_12, O75970
LNX1_3, Q8TBB1 = molecular target: LNX1_3, Q8TBB1
PARD3B_1, Q8TEW8 = molecular target: T3, PARD3B_1, Q8TEW8
GRIP1_4, Q9Y3R0 = molecular target: T4, GRIP1_4, Q9Y3R0
DLG4_1, P78352 = molecular target: DLG4_1, P78352
NHERF4_1, Q86UT5-2 = molecular target: NHERF4_1, Q86UT5-2
HTRA2, O43464 = molecular target: HTRA2, O43464
FRMPD2_2, Q68DX3 = molecular target: FRMPD2_2, Q68DX3
GORASP1, Q9BQQ3 = molecular target: GORASP1, Q9BQQ3
LIN7C, Q9NUP9 = molecular target: T5, LIN7C, Q9NUP9
SHANK1, Q9Y566 = molecular target: T6, SHANK1, Q9Y566
Inadl_1, Q8NI35 = molecular target: Inadl_1, Q8NI35
NHERF4_4, Q86UT5 = molecular target: NHERF4_4, Q86UT5
LDB3, O75112 = molecular target: LDB3, O75112
SNX27, Q96L92 = molecular target: SNX27, Q96L92
GRID2IP_2, A4D2P6 = molecular target: GRID2IP_2, A4D2P6
Inadl_6, Q8NI35 = molecular target: Inadl_6, Q8NI35
Inadl_2, Q8NI35 = molecular target: Inadl_2, Q8NI35
SIPA1L2, Q9P2F8 = molecular target: T7, SIPA1L2, Q9P2F8
NHERF2_2, Q15599 = molecular target: NHERF2_2, Q15599
CARD11, Q9BXL7 = molecular target: T8, CARD11, Q9BXL7
PTPN3, P26045 = molecular target: PTPN3, P26045
Sequence of PTPN3, P26045 (P26045 505-587): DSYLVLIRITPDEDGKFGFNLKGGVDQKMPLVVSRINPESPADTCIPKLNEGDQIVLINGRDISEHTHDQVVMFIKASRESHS

Sequence of NHERF4_4, Q86UT5 (Q86UT5 464-550): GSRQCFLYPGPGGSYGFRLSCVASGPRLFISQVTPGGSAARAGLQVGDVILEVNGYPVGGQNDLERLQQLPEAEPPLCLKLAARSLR
Sequence of NHERF4_1, Q86UT5-2 (Q86UT5 other isoform, or with tags, fused parts or gaps): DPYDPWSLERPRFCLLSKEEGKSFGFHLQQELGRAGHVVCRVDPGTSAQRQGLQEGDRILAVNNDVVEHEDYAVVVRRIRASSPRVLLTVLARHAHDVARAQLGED
Sequence of GORASP1, Q9BQQ3 (Q9BQQ3 1-208): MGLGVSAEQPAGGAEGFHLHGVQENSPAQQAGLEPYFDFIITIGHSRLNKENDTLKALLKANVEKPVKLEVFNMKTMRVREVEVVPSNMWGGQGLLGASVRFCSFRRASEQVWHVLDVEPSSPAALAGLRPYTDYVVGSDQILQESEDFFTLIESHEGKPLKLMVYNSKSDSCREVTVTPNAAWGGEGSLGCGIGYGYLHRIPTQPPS
Sequence of Inadl_2, Q8NI35 (Q8NI35 238-335): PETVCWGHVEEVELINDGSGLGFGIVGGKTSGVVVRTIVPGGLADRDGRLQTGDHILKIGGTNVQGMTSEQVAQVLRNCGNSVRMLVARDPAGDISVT
Sequence of LNX1_3, Q8TBB1 (Q8TBB1 500-596): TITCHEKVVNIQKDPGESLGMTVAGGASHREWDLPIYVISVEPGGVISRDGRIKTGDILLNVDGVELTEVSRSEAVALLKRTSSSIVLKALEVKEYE
Sequence of MAGI2_2, Q86UL8 (Q86UL8 410-522): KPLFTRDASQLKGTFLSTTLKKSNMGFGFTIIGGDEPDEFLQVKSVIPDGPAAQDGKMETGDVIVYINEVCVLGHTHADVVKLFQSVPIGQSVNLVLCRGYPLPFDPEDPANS
Sequence of SCRIB_3, Q14160 (Q14160 999-1103): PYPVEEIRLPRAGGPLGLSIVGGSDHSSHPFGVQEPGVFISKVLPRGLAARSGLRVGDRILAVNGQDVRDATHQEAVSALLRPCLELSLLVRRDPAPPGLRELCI
Sequence of MAGI2_6, Q86UL8 (Q86UL8 1141-1229): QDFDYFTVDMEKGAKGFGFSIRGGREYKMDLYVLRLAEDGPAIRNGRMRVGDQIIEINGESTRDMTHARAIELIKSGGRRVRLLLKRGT
Sequence of GRID2IP_2, A4D2P6 (A4D2P6 272-370): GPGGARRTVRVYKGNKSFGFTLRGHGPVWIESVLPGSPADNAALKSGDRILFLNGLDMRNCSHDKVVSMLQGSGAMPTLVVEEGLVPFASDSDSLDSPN
Sequence of DLG4_1, P78352 (P78352 62-152): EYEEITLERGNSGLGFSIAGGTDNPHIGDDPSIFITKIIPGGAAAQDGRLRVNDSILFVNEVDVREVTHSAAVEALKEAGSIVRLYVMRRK
Sequence of LDB3, O75112 (O75112 1-94): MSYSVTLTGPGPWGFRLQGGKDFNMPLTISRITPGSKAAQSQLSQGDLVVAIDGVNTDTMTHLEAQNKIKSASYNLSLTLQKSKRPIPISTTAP
Sequence of Inadl_6, Q8NI35 (Q8NI35 1058-1167): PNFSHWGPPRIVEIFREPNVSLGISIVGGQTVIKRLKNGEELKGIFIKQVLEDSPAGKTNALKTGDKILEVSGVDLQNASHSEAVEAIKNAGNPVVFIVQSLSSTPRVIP
Sequence of Inadl_1, Q8NI35 (Q8NI35 113-229): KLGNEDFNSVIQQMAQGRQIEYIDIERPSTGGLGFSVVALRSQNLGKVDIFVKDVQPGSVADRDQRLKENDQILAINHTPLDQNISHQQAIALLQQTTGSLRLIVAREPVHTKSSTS
Sequence of HTRA2, O43464 (O43464 355-458): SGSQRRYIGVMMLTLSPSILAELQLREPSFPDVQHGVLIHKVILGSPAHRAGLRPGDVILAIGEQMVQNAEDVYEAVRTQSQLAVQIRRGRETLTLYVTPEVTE
Sequence of GRIP2_4, Q9C0E4 (Q9C0E4 446-548): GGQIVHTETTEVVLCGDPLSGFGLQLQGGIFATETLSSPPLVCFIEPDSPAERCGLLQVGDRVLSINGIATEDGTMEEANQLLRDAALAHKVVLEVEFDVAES
Sequence of NHERF2_2, Q15599 (Q15599 142-238): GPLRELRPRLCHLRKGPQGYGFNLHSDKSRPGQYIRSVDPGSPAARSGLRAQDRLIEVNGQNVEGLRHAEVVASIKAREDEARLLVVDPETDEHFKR
Sequence of DLG1_3, Q12959 (Q12959 457-571): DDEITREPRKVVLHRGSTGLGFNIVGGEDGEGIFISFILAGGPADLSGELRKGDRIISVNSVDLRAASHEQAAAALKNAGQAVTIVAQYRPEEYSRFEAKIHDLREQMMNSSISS
Sequence of FRMPD2_2, Q68DX3 (Q68DX3 944-1038): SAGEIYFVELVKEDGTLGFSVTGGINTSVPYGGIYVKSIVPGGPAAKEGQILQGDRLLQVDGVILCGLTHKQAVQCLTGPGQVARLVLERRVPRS
Sequence of FRMPD4, Q14CM0 (Q14CM0 67-160): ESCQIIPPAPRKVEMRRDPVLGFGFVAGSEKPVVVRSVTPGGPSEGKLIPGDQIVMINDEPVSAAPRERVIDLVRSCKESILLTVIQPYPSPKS

| Binder | pKd (FRMPD4, Q14CM0) | pKd (SCRIB_3, Q14160) | pKd (RHPN1, Q8TCX5) | pKd (MAGI2_6, Q86UL8) | pKd (DLG1_3, Q12959) | pKd (MAGI2_2, Q86UL8) | pKd (GRIP2_4, Q9C0E4) | pKd (MPDZ_12, O75970) | pKd (LNX1_3, Q8TBB1) | pKd (PARD3B_1, Q8TEW8) | pKd (GRIP1_4, Q9Y3R0) | pKd (DLG4_1, P78352) | pKd (NHERF4_1, Q86UT5-2) | pKd (HTRA2, O43464) | pKd (FRMPD2_2, Q68DX3) | pKd (GORASP1, Q9BQQ3) | pKd (LIN7C, Q9NUP9) | pKd (SHANK1, Q9Y566) | pKd (Inadl_1, Q8NI35) | pKd (NHERF4_4, Q86UT5) | further results |
| --- | --- | --- | --- | --- | --- | --- | --- | --- | --- | --- | --- | --- | --- | --- | --- | --- | --- | --- | --- | --- | --- |
| ATKDKKITTV [EXOC4, Q96A65] | 3.55 | 3.84 | 4.08 | 3.72 | 4.08 | 5.52 | below the threshold | below the threshold | below the threshold | below the threshold | 3.48 | 5.25 | 3.64 | below the threshold | below the threshold | 3.76 | below the threshold | below the threshold | below the threshold | 3.99 | pKd (LDB3, O75112): below the threshold; pKd (SNX27, Q96L92): 4.38; pKd (GRID2IP_2, A4D2P6): 3.98; pKd (Inadl_6, Q8NI35): 3.53; pKd (Inadl_2, Q8NI35): 3.51; pKd (SIPA1L2, Q9P2F8): 3.52; pKd (NHERF2_2, Q15599): 3.6; pKd (CARD11, Q9BXL7): below the threshold; pKd (PTPN3, P26045): 4.31 |
| GDSSRKEYFI [GYPC, P04921] | below the threshold | 4.13 | below the threshold | below the threshold | below the threshold | 3.6 | below the threshold | 3.5 | below the threshold | 4.39 | below the threshold | below the threshold | below the threshold | 4.1 | below the threshold | 4.33 | below the threshold | below the threshold | 4.12 | below the threshold | pKd (LDB3, O75112): below the threshold; pKd (SNX27, Q96L92): below the threshold; pKd (GRID2IP_2, A4D2P6): below the threshold; pKd (Inadl_6, Q8NI35): 3.54; pKd (Inadl_2, Q8NI35): 4.99; pKd (SIPA1L2, Q9P2F8): below the threshold; pKd (NHERF2_2, Q15599): below the threshold; pKd (CARD11, Q9BXL7): below the threshold; pKd (PTPN3, P26045): 4.16 |
| SRPHTNETSL [MCC, P23508] | 4.49 | 5.13 | 4.64 | 3.8 | 3.73 | 3.64 | below the threshold | below the threshold | below the threshold | 3.7 | below the threshold | below the threshold | 4.12 | below the threshold | below the threshold | below the threshold | 3.65 | 4.17 | below the threshold | below the threshold | pKd (LDB3, O75112): below the threshold; pKd (SNX27, Q96L92): 5.72; pKd (GRID2IP_2, A4D2P6): 4.21; pKd (Inadl_6, Q8NI35): 3.83; pKd (Inadl_2, Q8NI35): below the threshold; pKd (SIPA1L2, Q9P2F8): below the threshold; pKd (NHERF2_2, Q15599): 4.49; pKd (CARD11, Q9BXL7): below the threshold; pKd (PTPN3, P26045): 4.9 |

Continued, in another order:

| pKd (FRMPD4, Q14CM0) | pKd (SCRIB_3, Q14160) | pKd (RHPN1, Q8TCX5) | pKd (MAGI2_6, Q86UL8) | pKd (DLG1_3, Q12959) | pKd (MAGI2_2, Q86UL8) | pKd (GRIP2_4, Q9C0E4) | pKd (MPDZ_12, O75970) | pKd (LNX1_3, Q8TBB1) | pKd (PARD3B_1, Q8TEW8) | pKd (GRIP1_4, Q9Y3R0) | pKd (DLG4_1, P78352) | pKd (NHERF4_1, Q86UT5-2) | pKd (HTRA2, O43464) | pKd (FRMPD2_2, Q68DX3) | pKd (GORASP1, Q9BQQ3) | pKd (LIN7C, Q9NUP9) | pKd (SHANK1, Q9Y566) | pKd (Inadl_1, Q8NI35) | pKd (NHERF4_4, Q86UT5) | Binder | further results |
| --- | --- | --- | --- | --- | --- | --- | --- | --- | --- | --- | --- | --- | --- | --- | --- | --- | --- | --- | --- | --- | --- |
| below the threshold | 4.43 | 3.79 | 3.83 | 3.96 | 5.03 | below the threshold | below the threshold | below the threshold | below the threshold | below the threshold | 4.56 | 3.81 | below the threshold | 3.7 | below the threshold | below the threshold | 4.55 | below the threshold | 3.88 | FHSIKQSTAV [CRHR1, P34998] | pKd (LDB3, O75112): below the threshold; pKd (SNX27, Q96L92): 4.91; pKd (GRID2IP_2, A4D2P6): 4.34; pKd (Inadl_6, Q8NI35): below the threshold; pKd (Inadl_2, Q8NI35): below the threshold; pKd (SIPA1L2, Q9P2F8): below the threshold; pKd (NHERF2_2, Q15599): below the threshold; pKd (CARD11, Q9BXL7): below the threshold; pKd (PTPN3, P26045): 4.6 |
| below the threshold | 4.04 | 3.77 | below the threshold | below the threshold | below the threshold | below the threshold | 3.52 | below the threshold | below the threshold | below the threshold | below the threshold | 3.97 | below the threshold | below the threshold | below the threshold | below the threshold | 3.64 | below the threshold | below the threshold | GSQSQVETEA [FKBP4, Q02790] | pKd (LDB3, O75112): below the threshold; pKd (SNX27, Q96L92): below the threshold; pKd (GRID2IP_2, A4D2P6): 3.68; pKd (Inadl_6, Q8NI35): below the threshold; pKd (Inadl_2, Q8NI35): below the threshold; pKd (SIPA1L2, Q9P2F8): below the threshold; pKd (NHERF2_2, Q15599): below the threshold; pKd (CARD11, Q9BXL7): below the threshold; pKd (PTPN3, P26045): 4.08 |
